According to the Human Domainome abundance scans (Beltran et al. 2025):

B1: Homeobox protein cut-like 2, residues 895 to 963; numbered along this chain, O14529 (parent)
chain: EVDTLELTRQVKEKLAKNGICQRIFGEKVLGLSQGSVSDMLSRPKPWSKLTQKGREPFIRMQLWLSDQL
B2: Gamma-crystallin S, residues 96 to 176; numbered along this chain, P22914 (parent)
chain: IQIFEKGDFSGQMYETTEDCPSIMEQFHMREIHSCKVLEGVWIFYELPNYRGRQYLLDKKEYRKPIDWGAASPAVQSFRRI

Variants of: B1
Assay: abundance fitness (aPCA) (normalised: wild type 0, dead -1); higher = more abundant; growth selection in yeast, the domain comes from the species named
Conditions: Homo sapiens

Abundance fitness: each site, then its substitutions
N18: K 0.04, H 0.001, D -0.153, R 0.013, G -0.098, T 0.022, E 0.045, Q -0.016, C -0.354, L 0.115, V -0.075, I -0.101, A -0.119, F -0.065
L7: K 0.032, T -0.077, V -0.023, M 0.055, N 0.034, Q -0.124, P -0.103, H -0.246, W -0.215, D -0.074, I -0.058, R -0.045, F -0.141, C -0.164, S -0.041, E 0.016, A -0.125
T4: V -0.221, Y -0.468, G -0.282, D -0.092, K -0.14, A -0.334, E -0.208, H -0.186, S -0.244, R -0.13, Q -0.254, I -0.126, L -0.215, F -0.006, W -0.015, P -0.179, C -0.3, M 0.037
L15: I -0.084, D -0.211, C -0.123, S -0.087, W -0.338, T -0.343, A 0.038, R -0.069, M 0.053, Y -0.124, K 0.029, F -0.157, N -0.184, V -0.154, G -0.113
A16: D -0.055, M -0.048, L -0.109, F -0.198, C -0.106, K 0.001, R 0.036, E -0.1, T -0.062, P -0.18, S 0.008, N -0.189, I -0.313, Q -0.063, Y -0.234
E6: G -0.111, H -0.142, A -0.123, T -0.129, R -0.162, W -0.173, K -0.035, D 0.096, Y -0.158, F -0.192, S -0.095, M -0.192, V -0.191, C -0.231, Q -0.258, I -0.196, N -0.055
E13: V -0.235, M -0.008, S -0.129, H -0.155, N -0.116, F -0.182, Q -0.248, D 0.117, L -0.138, P -0.135, G -0.2, Y -0.08, I -0.139, R -0.101, A -0.072, T -0.144, K -0.101, C -0.205, W -0.357
D3: R -0.316, K -0.203, Y -0.358, M -0.163, V -0.42, I -0.541, E -0.277, N -0.001, F -0.139, W -0.221, C -0.279, S -0.084, G -0.253
R9: F -0.181, H -0.358, E -0.1, W -0.385, N -0.068, S -0.16, C -0.21, K -0.086, V -0.15, T -0.135, D -0.21, G -0.129, Y -0.261, P -0.137, L -0.162, A -0.044, Q -0.132, M 0.006
E1: K -0.026, Q -0.278, L -0.3, F -0.079, S -0.063, C 0.037, V -0.213, D -0.457, T -0.247, H -0.149, W -0.239, M 0.034, N -0.067, A -0.122
L5: P -0.076, V 0.015, I 0.024, E 0.083, T 0.015, W -0.021, C -0.03, K 0.102, G -0.061, F 0.025, S -0.231, A 0.028, D -0.146, Y -0.033, R -0.039, M 0.122, N 0.046
K14: L 0.009, E -0.073, N -0.249, S -0.154, W -0.094, T 0.077, A -0.064, D -0.55, I -0.022, Y -0.045, R -0.062, F 0.102, V -0.03, H -0.009, G -0.589, P -0.208, M 0.066, Q -0.012
V2: D -0.301, K 0.017, H -0.201, N -0.136, P -0.244, L 0.03, G -0.001, R -0.041, S -0.019, M 0.077, W -0.137, E -0.019, F -0.024, Y -0.152
Q10: D 0.005, N -0.128, K 0.07, F -0.244, L -0.018, C -0.343, M 0.082, R -0.038, V -0.164, S -0.155, Y -0.313, A -0.23, H -0.228, E -0.214, P -0.158
T8: K -0.063, A -0.064, Q -0.333, G -0.204, L -0.157, C -0.022, N -0.158, F -0.143, V 0.041, D -0.214, P -0.185, H -0.19, Y -0.309, I -0.107, W -0.206, E -0.242, R -0.136, S -0.115
V11: L -0.27, E -0.192, A -0.224, P -0.141, Q -0.218, Y -0.326, H -0.23, C -0.465, I -0.18, F -0.239, T -0.171, N -0.153, W -0.313, M -0.162, G -0.146, S -0.166, K -0.081, R -0.125, D -0.065
K17: N -0.011, Q 0, V -0.169, L -0.087, G -0.234, D -0.175, W -0.269, S -0.208, I -0.292, Y -0.276, F -0.267, A -0.086, C -0.2, M -0.09, R -0.089, P -0.411, H -0.382
K12: F -0.748, G -0.516, V -0.366, D -0.025, W -0.547, Q -0.358, R -0.187, H -0.354, S -0.387, E -0.348, P -0.244, N -0.27, Y -0.528, T -0.271, A -0.372, M -0.237

Variants of: B2
Assay: as above
Conditions: Homo sapiens

Abundance fitness: each site, then its substitutions
F78: R -1.11, S -0.37, I -0.228, L 0.059, Y -0.023, P -0.869, K -0.771, V -0.039
I81: L -0.065, C 0.106, K -0.186, E 0.026, R -0.074, Q 0.045, S -0.043, D 0.114, N 0.165, M -0.31
R80: Q -0.491, Y -0.919, V 0.062, S -0.023, C 0.059, H -0.573, E -0.253, L 0.02, A -0.381, G 0.028
R79: W -0.419, L -0.406, G -0.413, S -0.036, Q -0.058, I -0.294, K -0.358, E -0.191, M -0.346, A 0.147, T 0.021, V -0.596
